T1: MARV Musoke GPe (Marburg virus, Musoke strain, UniProt P35253 19-637)
T1 sequence: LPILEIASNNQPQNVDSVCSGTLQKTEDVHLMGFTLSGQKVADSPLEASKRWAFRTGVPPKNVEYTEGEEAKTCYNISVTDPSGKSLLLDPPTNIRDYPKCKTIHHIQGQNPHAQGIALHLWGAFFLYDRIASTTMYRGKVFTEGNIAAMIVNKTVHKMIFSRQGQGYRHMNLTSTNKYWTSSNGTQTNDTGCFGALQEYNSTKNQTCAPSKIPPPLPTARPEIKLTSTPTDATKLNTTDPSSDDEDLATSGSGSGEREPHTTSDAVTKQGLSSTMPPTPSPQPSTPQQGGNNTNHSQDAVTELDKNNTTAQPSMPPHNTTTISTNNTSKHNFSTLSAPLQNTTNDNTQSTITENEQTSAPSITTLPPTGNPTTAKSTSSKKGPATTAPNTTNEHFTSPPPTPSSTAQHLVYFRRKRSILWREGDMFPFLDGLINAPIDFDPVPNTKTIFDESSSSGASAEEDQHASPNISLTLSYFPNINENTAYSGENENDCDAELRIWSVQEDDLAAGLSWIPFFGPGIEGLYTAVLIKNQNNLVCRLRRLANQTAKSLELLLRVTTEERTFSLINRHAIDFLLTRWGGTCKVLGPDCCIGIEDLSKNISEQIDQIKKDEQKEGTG

T2: MARV Ci67 GPe (Marburg virus, Ci67 strain, UniProt P35254 19-637)
T2 sequence: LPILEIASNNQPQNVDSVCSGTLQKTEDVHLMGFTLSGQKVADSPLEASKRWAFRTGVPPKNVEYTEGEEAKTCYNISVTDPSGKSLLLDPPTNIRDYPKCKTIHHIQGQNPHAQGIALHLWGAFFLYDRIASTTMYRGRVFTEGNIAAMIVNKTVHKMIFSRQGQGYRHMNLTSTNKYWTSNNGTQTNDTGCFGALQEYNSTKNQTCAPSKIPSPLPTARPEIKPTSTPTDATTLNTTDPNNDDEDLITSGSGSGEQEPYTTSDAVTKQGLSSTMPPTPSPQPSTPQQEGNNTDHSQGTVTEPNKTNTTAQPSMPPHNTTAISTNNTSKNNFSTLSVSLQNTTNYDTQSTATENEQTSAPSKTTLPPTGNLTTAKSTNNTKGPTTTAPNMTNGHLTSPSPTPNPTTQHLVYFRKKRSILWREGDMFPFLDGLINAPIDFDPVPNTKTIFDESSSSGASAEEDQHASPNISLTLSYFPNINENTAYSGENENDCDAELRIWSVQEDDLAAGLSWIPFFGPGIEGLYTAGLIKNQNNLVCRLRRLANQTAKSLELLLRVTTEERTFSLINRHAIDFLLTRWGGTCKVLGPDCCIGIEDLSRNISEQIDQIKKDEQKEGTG

T3: MARV Angola GPe (Marburg virus, Angola strain, UniProt Q1PD50 19-637)
T3 sequence: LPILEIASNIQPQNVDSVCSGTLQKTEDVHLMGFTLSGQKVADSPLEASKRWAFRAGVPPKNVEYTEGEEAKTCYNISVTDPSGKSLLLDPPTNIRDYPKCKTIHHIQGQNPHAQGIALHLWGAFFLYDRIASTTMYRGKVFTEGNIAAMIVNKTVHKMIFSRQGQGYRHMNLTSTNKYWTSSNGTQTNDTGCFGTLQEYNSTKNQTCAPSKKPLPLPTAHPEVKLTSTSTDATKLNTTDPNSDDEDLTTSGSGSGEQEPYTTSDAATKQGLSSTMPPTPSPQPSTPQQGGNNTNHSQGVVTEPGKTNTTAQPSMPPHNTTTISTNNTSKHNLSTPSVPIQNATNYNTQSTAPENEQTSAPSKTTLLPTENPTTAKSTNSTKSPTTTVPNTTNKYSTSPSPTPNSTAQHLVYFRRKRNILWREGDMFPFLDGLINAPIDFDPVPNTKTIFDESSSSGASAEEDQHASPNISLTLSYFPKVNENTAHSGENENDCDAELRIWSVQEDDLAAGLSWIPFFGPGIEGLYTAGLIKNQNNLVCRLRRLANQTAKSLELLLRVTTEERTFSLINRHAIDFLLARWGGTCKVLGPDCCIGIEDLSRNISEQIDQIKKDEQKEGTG


Assays:
[1] = target: T1, MARV Musoke GPe; assay: ELISA on coated antigen (FIG. 2)
[2] = target: T2, MARV Ci67 GPe; assay: ELISA on coated antigen (FIG. 2)
[3] = target: T3, MARV Angola GPe; assay: ELISA on coated antigen (FIG. 2)
[4] = target: T4, Marburg virus GP (Ravn) (Marburg virus, Ravn strain, UniProt Q1PDC7 19-681); assay: cell-based or functional assay
[5] = target: T4, Marburg virus GP (Ravn); assay: cell-based or functional assay; remark: listed apart in the source

Row | Binder | binding result [1] | binding result [2] | binding result [3] | neutralization of mucin containing (full length) MARV GP-pseudotyped VSV [4] [%] | VSVdG/GP Neutralization [5] [%]
1 | CAN30G3 (antibody, V domains shown) VH: QVQLKESGPGLVAPSQSLSITCTVSGFSLTDYGITWIRQPPGKGLEWLGVIWGGGSAYYNLVLKSRLSISKDNSKSQVFLKMNSLQTDDTAMYYCAKHRTLITTAMDYWGQGISVTVSS VL: DVLMTQTPLSLPVSLGDQASISCRSSQNIVHSNGNTYLEWYLQKSGQSPKLLIYKVSNRFSGVPDRFSGSGSGTDFTLKISRVEAEDLGVYYCFQGSHFPWTFGGGTKLEIK | no binding | no binding | no binding | ~50 | 40
2 | CAN30G4 (antibody, V domains shown) VH: EVKLVESGGGLVKSGGSLKLSCAVSGFTFSTYAMSWVRQIPEKRLEWVATISNGGSYIYYSDSVKGRFTISRDNAKNTLYLQMSSLRSEDTAMYYCARHRESYRYDWFAYWGQGTLVTVSA VL: DVLMTQTPLSLPVSLGDQASISCRSSQNIVHSDGNTYLEWYLQKPGQSPKLLIYKFSNRFSGVPDRFSGSGSGTDFTLKISRVEAEDLGVYYCFQGSHVPPTFGAGTKLELK | binds | binds | binds | – | 50
3 | CAN54G2 (antibody, V domains shown) VH: QVQLQQSGTELVRPGTSVKISCKASGYDFTNFWLGWIKQRPGHGLEWIGDIYPGGDNTYYNEKFKGKVTLTADKSSNTAYMQFSSLTSEDSAVYFCFMILYTLDYWGQGTSVTVSS VL: not shown | no binding | no binding | no binding | ~50 | 40
4 | CAN40G1 (antibody, V domains shown) VH: EVQLQQSGPELVKPGASVKISCRTSGYTFTEYTIHWVKQSRGKSLEWIGGINPNHGGTLYNQKFKVKATLTVDKSSSTAYMELRSLTSEDSAVYYCARFTYDYWGQGTTLTVSS VL: DIVLTQSPASLAVSLGQRASISCKASQSVDHDGDSYMNWYQQKPGQPPKLLIYATSNLESGIPARFSGSGSGTDFTLNIHPVEEEDAATYYCQQSYEVPLTFGAGTKLELK | binds | binds | binds | – | 0
5 | CAN30G1 (antibody, V domains shown) VH: QIQLVQSGPELKKPGETVKISCKASGYTFTNYGMNWVKQAPGKGLKWMGWINTYTGKPTYVDDFKGRFAFSLETSANTAYLQINNLKNEDTATYFCESGGYDEDYWGQGTTLTVSS VL: ENVLTQSPAIMSASPGEKVTMTCSASSSVTYMHWYQQKSSTSPKLWIYDTSKLASGVPGRFSGSGSGNSYSLTISSMEAEDVATYYCFQGSGYPYTFGGGTKLEIK | binds | binds | binds | – | 5
6 | CAN30G5 (antibody, V domains shown) VH: EVQLVESGGGLVQPKGSLKLSCAASGFAFNSYAMHWVCQAPGKGLEWVARIRIKSGNYATSYAGSVTDRFTVSRDDSQNLFYLQMNNLKTEDTAMYYCVREWEGAMDYWGQGTSVTVSS VL: DIVLTQSPLSLPVSLGDQASISCRSSQSLVHSNGNTYLHWYLQKPGQSPNLLIYKVSNRFSGVPDRFSGSGSGTDFTLKISRVEAEDLGVYFCSQSTHVPWTFGGGTKLEIK | no binding | no binding | no binding | ~50 | 50

Reference: patent publication US20170065702A1 (CANGENE, published 2017)
